The DeepSol protein solubility set

Test: soluble on expression in E. coli; label from the status in PepcDB or PDB records

## MGSDKIHHHHHHMTLLDRFDGGFARDGEDIIAGSRIEDARIHNRRLVFETIFQRGPISRVEISAIVGLKPQTISSITRELLEQELIVEAGRSSGLRGQPQIYLEANAEAGFSIGVHLDQNQCHILVFDLKRQERARKSMRCDTANPDVTVRMLAQTITTLLHDNALPAERIWGLGLVLPTFGSDVYDFDFSMRHWEAWRDASFAEDLQRLTGFAVLVENDGTAAAIGERLHRHDAQEASFAYFYIGHGAGAGLIIDGYPFKGVGGNAGEIGLLPILGLGANPVWPDNPSSAVQGGVLSIGGLAAACGLSEQSMDEQSILSLLERRDHRLMDWLASAASVLRDVCAVIEVMFDPGFIAVGGALPRALVERLVDRAYPLRPTPSARRDRALPRLLPATLIEDAAVTGAAMLPIFVTTSHNFRHLYFRQILADDRS
  soluble on expression in E. coli: not soluble

## MGSDKIHHHHHHMKIDMRNISKSFGTNKVLEKIDLELQSGQIHALMGENGAGKSTLMNILTGLFPASTGTIYIDGEERTFSNPQEAEEFGISFIHQEMNTWPEMTVLENLFLGREIKTTFGLLNQKLMRQKALETFKRLGVTIPLDIPIGNLSVGQQQMIEIAKSLLNQLSILVMDEPTAALTDRETENLFRVIRGLKQEGVGVVYISHRMEEIFKITDFVTVMRDGVIVDTKETSLTNSDELVKKMVGRKLEDYYPEKHSEIGPVAFEVSNLCGDNFEDVSFYVRKGEILGFSGLMGAGRTEVMRTIFGIDKKKSGKVKIDDQEITITTPSQAIKQGIGFLTENRKDEGLILDFNIKDNMTLPSTKDFSKHGFFDEKTSTTFVQQLINRLYIKSGRPDLEVGNLSGGNQQKVVLAKWIGIAPKVLILDEPTRGVDVGAKREIYQLMNELADRGVPIVMVSSDLPEILGVSDRIMVMHEGRISGELSRKEADQEKVMQLATGGK
  soluble on expression in E. coli: not soluble

## DVQLQESGPGLVKPSQSLSLTCTVTGYSITSLYAWNWIRQFPGNKLEWMGYINYSGYTSYNPSLKSRISITRDTSKNQFFLQLHSVTTEDTATYSCTRGVDYFAMDYWGQGASVTVSSAKTTAPSVYPLAPVCGDTTGSSVTLGCLVKGYFPEPVTLTWNSGSLSSGVHTFPALLQSDLYTLSSSVTVTSNTWPSQSITCNVAHPASSTKVDKKIVPRD
  soluble on expression in E. coli: soluble

## MPDSLKSSIGYSRRFRLFRRGEVTVLEVMAGQKAYPDTLRYLLVPEGRPQPSGFVGYTVIRTPVKRIAVFSTTHIGFLDMLGRSDGIIGVSRPEFVNTPAVRSRIRSGAIKAIGMPFSPDVEALLNLEPDLVIAPALPAARKTDYQALVQAGIPVLVVAEWLEPSPLGRAEWIKLFGALVGKEKLARERFAAIESSYLKIAALSRNLPNRPTVLTGLPVKDAWYVPTGGSYVAAMLRDAGASYHWRDLPGTGSVPLTIEAVWPVALEAEYWLNTGTVSTLDELLAVDSRFGQMRSVRERRVWNNNRLVNAAGGNAYWESGVVRPDLILKDLVMILHPGLLRAHGIGEGELTFFQEVKLEHHHHHH
  soluble on expression in E. coli: not soluble

## GMECRPLCIDDLELVCRHREAMFREAGRDALTLAAMQDPFRDWLLPRLADGSYFGWVMEEGGAPLAGIGLMVIEWPPHPSHPLQDKRGYILNLYVDPSHRERGIGQALMNRAEAEFAERGIAFAVLHATEMGQPLYARMGWSPTTEMSKPIAG
  soluble on expression in E. coli: soluble

## MAEFKEQVLDILEEVCENDIVKENLDVQLFEEGILDSFAVVSLLVEFQERLDIEVSISDFDRDEWATPNMVIKKLEEIR
  soluble on expression in E. coli: not soluble

## MKIPSVFMLEQQKASLQLHVKQLANEAIQKSAPSAWFEVLYAEAQGDTTQIPWAKLTPHPYLQEWLTNHQPFPSGQKALVIGCGLGDDAEALAKLGFAVTAFDISPTAIAWCGQRFPNSNVNYIVADLLAIPPQWHLAFDFVFECRNIQALPLNIRAEVITSIASVVAPDGTLLLINRVRLEHHHHHH
  soluble on expression in E. coli: not soluble

## DERGEVVDGDKLIGALAMHLKNSHTLEKPLAVATVMSNLALEEFLAKAKIKLLRAGVGDKYVLEMMQKEGANFGGEQSGHLIFSDFAKTGDGLVSALQTMAFVLRSGERASRALNIFDLY
  soluble on expression in E. coli: not soluble

## MGSDKIHHHHHHMRLDEYISRDIAWCPGCGNFGIRTALMKALEELNVDPRQVVIVSGIGQAAKMPQYVGVNMFNGLHGRALPVATAIKTTNPNLLVIAESGDGCMYGEGGNHFIHTIRRNPDIVNIVHDNQVYGLTKGQASPTSLKGFKTPVQVDGVILEPFNPLAVAIALDASFVARTFIGDIEFTKDILKEAMKHKGYALVDILQPCVTFNKLNTYEWYRENTYYLKDHDPTDRELAFKRAIETEKLPLGIFYVNKNKETFEELARKGDRTPLYEYEVNFEKLKELIESKKS
  soluble on expression in E. coli: not soluble

## MALLILFFLLGLSFSLEVFSEKLEIKENEIIAEGDAEAYYKNYYIKAKKIKLLRDKDEVYAYEDVYIKNLKTGFEIRGSFAYVNMKKNKGYFLNAKGKFREFNFEAKKIEQLDKERFKVYEATVTTCPLDDKELYLCIFRANITKERALIFHNRLKFFKVPIFYLPVYLIPLGGRKTGFLMPTIGSSTYSSFIYIQPFFWAISRDKDMTITADYRKDQMKGLSLEYRQAFDEESDLITQFSLYKEDKKKGDWWKGREMYRENRFRIFMKYRKKPFKIGVEELSDPYYYEDISFKQEEITKPYTKTYLIYEKETKNYLFYFQTVRYRDLTEEKNNAVNLLPEASFHLKPFYYKGFNFSLDSSFTNFYRNYDGSFMRISLEPTVGKYFELFKVSNYSSLTLINRYYPDSEEDKIVSTFRFRHSVPQYFSLSYGGFKFKNFLEGLYTFSPKDYEVQIFDYQDELNEENNFQFTLVGNLYKNRKLMDYFLNTGYNLLGSYTFPTDGKKIDKKLLPLYYNVSVYPVENVRFWQDAVYDFNLGVFARNVIGTDISWKNFSVGISNSVYKNSEKKVTTDQIALNLKYSGDKFFSGISLNYDRLVDKETYRNVYVGVKGKCWSLVLDYKRNYYRNRDEYVDQVFLRFNLFFKEEIEIPLRR
  soluble on expression in E. coli: not soluble

## MFNIMLVKFVVIFALILASCRVEADNTSVLPEGFVDAAQRSTHTNNWAVLVDASRFWFNYRHVANVLSIYRSVKRLGIPDSQIILMIADDMACNARNPRPGQVYNNANQHINVYGDDVEVDYRGYEVTVENFVRLLTGRTQNGTARSKKLLSDAGSNVLIYLTGHGGDGFLKFQDSEEITSQELADGIQQMWEKKRYNELFFMVDTCQAASLYEKFTSPNVLAVASSLVGEDSLSHHVDPSIGVYMIDRYTYYALEFLEKVQPFSKRTIGEFLQVCPKRVCISTVGVRKDLYPRDPHKVPITDFFGAIRPTRVSTDRINVTLANEELEHHHHHH
  soluble on expression in E. coli: not soluble

## MGSDKIHHHHHHAQKGEKTLTVEVSNEWTQNKTDEPIVIDLNNLKAGFNIKSATVWEGNKEIPSQLDDLNGDARADELAFLIDMPAKSNKSFRIILSSEKSEKNYPARTYAQMKAYGHNNKFANITGFSAAGTENVYSFVYHHGPAIESELVAYRIYFNEKQTVDPYSKVNKRLEIKETCFYPTKAQRANGYGDDALRVYNSGGVGALKGWNGTEATHIKPVVNRTERVLASGPVRAIVEAEVIGWEYQGNDLNMINRYTIYGGHRDMKVDVLFDRPLKQEVFAAGVQILKEGGHMSDHKGLTGSWGTDWPVTDTIGYVKETTGMGTFIPKYIGKEVQDGSNYLYTLQAPGQQHFHYYVTFTSKKESFGFKDMKDWFNYLPQWRKELEHPCKITIK
  soluble on expression in E. coli: not soluble

## MTNSVLRVLEHLRAHDHDAIVLAPGDADTPHEYAGFPVIPLASLHWPGYQDVRVSTSPQWTMERYLSEFEPDVVHLAGPFMIGYKGAMAAASLGIPIVAIYQTDIPSYAGRYGLGKLEFYGWYRVRQIHSLAVATYAPSTFSRDQLVSHGVPRVDIWGRGVDKVRFHPSKRSQQLHDEWAPNGEVVIGYMGRLAAEKRVADMTNLADIPNTKLVIVGDGPARAEVEKQLPHAVFTGGLGGEDLPRALASMDVFCSTGELETFCQAVQEAKACGLPVISPRKGGPIDLIDSSRTGWLYEPGDMTDFRSRVIDLVGDDYKRHAMGIAARASIENRTWENLCAELVEHYKEAIRLAGRSTRIRAVLLEHHHHHH
  soluble on expression in E. coli: not soluble

## MVALRGKDATSFLARPDPGRPIVLLYGPDAGLVRERADALIAASLDDPKDPFALVRLDGDELSAEPSRLVDEALAIPMFGGRRAIRVRAGSRSFVAGVEALIASPPRECRIVIEAGDIKPDNALRKACEKAATGAVAIGCYPDAEADIARLIDDELRGSNLQIAKDARAVLTTLLGGDRQASRNELRKLALYAHGKGEVTLDDVITCVSDASDLKLDAIVDAAFSGKPVVVETEFAKAMVAGTYPGQIILAAQRHAAFLHKTSLVVEGGTPAAVVLDSGFPRLHFSRKAAAETALRNLSTTRLAQIIEQLASAALETRRQATLGAAIAQRTLLSIAVSARRRSLEHHHHHH
  soluble on expression in E. coli: soluble

## MMKPIAVSQLSDNFFETISKEWMLVTAGNKNAFNTMTANWGGIGFLWNKPVVYVFIRPERYTFGFMEKSDYFTLSFLGEENKSIHKICGSKSGREVDKIKETGLKPMITDKGNVLFEQGRLSLECRKLYTDVLRKENFLDPSVYEQWYTTHGGLHHVYVAEITSAWIKD
  soluble on expression in E. coli: not soluble

## MIPHTDIVHNLAEKVVVVRLEKPVTFHNMIAPGKEVEVSLLFFIINNSSSSQTNILAQLMDFFTGNGHLEDLSKISEPEALYAYIAEATA
  soluble on expression in E. coli: not soluble

## ITFEIAGDKLLMTLVPERLRGETASFDIEANGKVYVERGRRITARHIKALEKDNISQVVVPSEYILGKVASKDYVDLESGEIICPANGEISLETLAKLAQAG
  soluble on expression in E. coli: not soluble

## MGSDKIHHHHHHMKLVFRWYGEKHDTVTLEQIRQIPGVEGVVGALFDIPVGEVWPFEEIMKLKETVEKAGLKLEVIESVNVHEDIKLGLPTRDRYIENYKKTIRNLAKAGVKVVCYNFMPVFDWMRTDLHKKLPDGSETMEYDHRLIEGVTPDELIKRVKEGSQGFVLPGWEWDRLEKLRETFELYKNVDEEKLFENLVYFLERVIPVCEECDVKLAIHPDDPPWSIFGLPRIITNKENIERMLKAVDSPYNGITFCMGSLGANPENNIPEMIRYFGKMGRIHFAHVRNLKFTGEKSFYETAHPSFCGSHDLFEVMKAFHDIGYEGYIRPDHGRLIWGEKARPGYGLYDRALGATYILGLWEAIDKMKKRYC
  soluble on expression in E. coli: not soluble

## KDGDFLDMDWHGPNDADAPLVLVLHGLTGSSNSPYVAGLQKAMAAKGWASVALNWRGCSGEPNLLSRSYHSGASEDLAEVIAHLRLLRPLAALYAVGYSLGGNVLLKYLGESGKHSELLGAVAVSVPFRLDECANRIGQGFSKVYQRHFMREMLTYIRDKQQRFQHEGLTEGLAELSALGSLENMRTFWDFDGRVTAPLHGFVDATDYYRRASSRYYLGQIETPTLIIQSRDDPFVFPHSLPEPGELSACTEFELHAKGGHVGFVDGSLRNPTYYLERRIPSWL
  soluble on expression in E. coli: not soluble

## GGVDSHSHIAGAKVNTGRTLRPEDSKKDLFSKEGLRQGSGFSIPSTFKTGYQYSGMGYTTVIEAAMPPLVARHTHEEFMDLPQIDKAAMPLFGNSWMVLEYLKNGDLSMCAAYVAWLLKVTKGYAIKIVNPGGTEAWGWGKNVHGLDDEVPYFGITPREIVTGLAKVNEMLGLPHSIHVHPNNLGHPGNWETTIDTMDCVKDIKAKPKFGDRDTVYYNTHLQFHSYGGTSWKDCVSKGVETADYVNKNKHVMIDVGQVTLDETTTMTADGPMEYDLHMTNGLKWANCDVELETGSGVVPFIYSPKGPVYSLQWAIGLDIFLYTQPEKLILTTDHPNAGPFVRYPRVIAWLLSKEYRNDWIQNRVHKWAAEKSHITETDREYSMYEIAQITRANSSKVLGLSGDRGHLGAGAKADISIYDIDPEEKSGKKIEKAFLEAAYVLKDGEIVVKNG
  soluble on expression in E. coli: not soluble
